Results on one molecule are retold here after US20020198143A1 (Human Genome Sciences, published 2002).

The target of the assay is T1, human B7-H3 protein expressed on transfected 293 cells (human, UniProt Q5ZPR3 29-534).
T1 construct: also called B7-H3/293 cells
T1 sequence: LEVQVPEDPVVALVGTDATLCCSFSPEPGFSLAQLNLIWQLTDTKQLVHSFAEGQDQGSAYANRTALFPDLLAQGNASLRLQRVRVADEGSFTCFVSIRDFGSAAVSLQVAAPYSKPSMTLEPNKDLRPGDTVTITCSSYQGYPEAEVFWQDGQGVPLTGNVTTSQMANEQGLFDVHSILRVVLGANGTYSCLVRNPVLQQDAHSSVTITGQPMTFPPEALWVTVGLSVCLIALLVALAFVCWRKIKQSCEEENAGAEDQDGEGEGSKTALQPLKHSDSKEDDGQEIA
The assay is described as follows: FACS on 293 cells transfected with B7-H3. From the text:
It has been reported that both CTLA-4 nd ICOS can be induced to express on the surface of activated T cells, while CD28 expresses constitutively.

B1: ICOSIg (Fc fusion, UniProt Q9Y6W8 21-140, looked up)
chain: EINGSANYEMFIFHNGGVQILCKYPDIVQQFKMQLLKGGQILCDLTKTKGSGNTVSIKSLKFCHSQLSNNSVSFFLYNLDHSHANYYFCNLSIFDPPPFKVTLTGGYLHIYESQLCCQLK
notes: extracellular domain; not shown: Fc constant region of mouse IgG2a, inferred from 'similar methods'
On to B1, for which the binding result is “no binding”.
